Laboratory results as given in US20220378827A1 (EMORY UNIVERSITY, published 2022).

Target: T1, CD5 antigen on T cells (Jurkat, Molt-4, gamma delta T cells) (UniProt P06127 25-495, limits assumed)
T1 sequence (looked up): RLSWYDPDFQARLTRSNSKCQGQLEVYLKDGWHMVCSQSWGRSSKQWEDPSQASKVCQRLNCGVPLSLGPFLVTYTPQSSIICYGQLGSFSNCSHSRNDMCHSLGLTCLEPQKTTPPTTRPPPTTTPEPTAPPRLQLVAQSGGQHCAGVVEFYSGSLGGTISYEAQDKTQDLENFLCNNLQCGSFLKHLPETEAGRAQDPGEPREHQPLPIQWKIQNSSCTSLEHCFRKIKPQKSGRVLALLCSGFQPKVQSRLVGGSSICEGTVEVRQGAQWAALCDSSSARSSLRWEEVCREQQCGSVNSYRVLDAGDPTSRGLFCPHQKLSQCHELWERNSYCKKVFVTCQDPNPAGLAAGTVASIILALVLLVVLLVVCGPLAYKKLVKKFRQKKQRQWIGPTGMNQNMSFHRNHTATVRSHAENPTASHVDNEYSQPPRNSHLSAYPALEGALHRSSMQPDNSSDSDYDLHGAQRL
Experiment: cell-based or functional assay

B1: CD5-NSCAR (CD5 scFv non-signaling chimeric antigen receptor) (other)
chain: GAPEIQLVQSGGGLVKPGGSVRISCAASGYTFTNYGMNWVRQAPGKGLEWMGWINTHTGEPTYADSFKGRFTFSLDDSKNTAYLQINSLRAEDTAVYFCTRRGYDWYFDVWGQGTTVTVSSGGGGSGGGGSGGGGSDIQMTQSPSSLSASVGDRVTITCRASQDINSYLSWFQQKPGKAPKTLIYRANRLESGVPSRFSGSGSGTDYTLTISSLQYEDFGIYYCQQYDESPWTFGGGTKLEIKASEQKLISEEDLDNEKSNGTIIHVKGKHLCPSPLFPGPSKPFWVLVVVGGVLACYSLLVTVAFIIFWVRSEWPGKVR
**Q.** Which “CD5 expression on non-modified Jurkat T cells in co-culture with CD5-NSCAR-modified Jurkat T cells, 1:1 ratio” value does the source give for B1 here?
**A.** < 20%
